First the molecules themselves.
B1: CD2 antigen cytoplasmic tail-binding protein 2 (Homo sapiens), O95400 (parent)
chain: MPKRKVTFQGVGDEEDEDEIIVPKKKLVDPVAGSGGPGSRFKGKHSLDSDEEEDDDDGGSSKYDILASEDVEGQEAATLPSEGGVRITPFNLQEEMEEGHFDADGNYFLNRDAQIRDSWLDNIDWVKIRERPPGQRQASDSEEEDSLGQTSMSAQALLEGLLELLLPRETVAGALRRLGARGGGKGRKGPGQPSSPQRLDRLSGLADQMVARGNLGVYQETRERLAMRLKGLGCQTLGPHNPTPPPSLDMFAEELAEEELETPTPTQRGEAESRGDGLVDVMWEYKWENTGDAELYGPFTSAQMQTWVSEGYFPDGVYCRKLDPPGGQFYNSKRIDFDLYT
B2: Isoform 1 of Acetyl-CoA acetyltransferase, cytosolic (Homo sapiens), Q9BWD1-1 (parent)
chain: MNAGSDPVVIVSAARTIIGSFNGALAAVPVQDLGSTVIKEVLKRATVAPEDVSEVIFGHVLAAGCGQNPVRQASVGAGIPYSVPAWSCQMICGSGLKAVCLAVQSIGIGDSSIVVAGGMENMSKAPHLAYLRTGVKIGEMPLTDSILCDGLTDAFHNCHMGITAENVAKKWQVSREDQDKVAVLSQNRTENAQKAGHFDKEIVPVLVSTRKGLIEVKTDEFPRHGSNIEAMSKLKPYFLTDGTGTVTPANASGINDGAAAVVLMKKSEADKRGLTPLARIVSWSQVGVEPSIMGIGPIPAIKQAVTKAGWSLEDVDIFEINEAFAAVSAAIVKELGLNPEKVNIEGGAIALGHPLGASGCRILVTLLHTLERMGRSRGVAALCIGGGMGIAMCVQRE
B3: Nuclear protein AMMECR1 (Homo sapiens), Q9Y4X0 (parent)
chain: MAAGCCGVKKQKLSSSPPSGSGGGGGASSSSHCSGESQCRAGELGLGGAGTRLNGLGGLTGGGSGSGCTLSPPQGCGGGGGGIALSPPPSCGVGTLLSTPAAATSSSPSSSSAASSSSPGSRKMVVSAEMCCFCFDVLYCHLYGYQQPRTPRFTNEPYPLFVTWKIGRDKRLRGCIGTFSAMNLHSGLREYTLTSALKDSRFPPMTRDELPRLFCSVSLLTNFEDVCDYLDWEVGVHGIRIEFINEKGSKRTATYLPEVAKEQGWDHIQTIDSLLRKGGYKAPITNEFRKTIKLTRYRSEKMTLSYAEYLAHRQHHHFQNGIGHPLPPYNHYS
partner: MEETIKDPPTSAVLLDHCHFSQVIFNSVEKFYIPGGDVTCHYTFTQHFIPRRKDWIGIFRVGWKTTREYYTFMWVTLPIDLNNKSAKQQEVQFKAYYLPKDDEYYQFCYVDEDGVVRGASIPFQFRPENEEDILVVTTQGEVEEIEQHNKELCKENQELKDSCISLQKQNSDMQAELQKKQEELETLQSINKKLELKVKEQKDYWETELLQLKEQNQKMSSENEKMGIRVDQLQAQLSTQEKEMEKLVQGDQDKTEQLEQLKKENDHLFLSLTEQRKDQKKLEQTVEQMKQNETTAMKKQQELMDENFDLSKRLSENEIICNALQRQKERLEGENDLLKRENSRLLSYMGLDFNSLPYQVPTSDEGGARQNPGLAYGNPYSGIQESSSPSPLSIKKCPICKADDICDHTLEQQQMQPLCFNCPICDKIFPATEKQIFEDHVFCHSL
B4: Zinc finger protein Aiolos (Homo sapiens), Q9UKT9 (parent)
chain: MEDIQTNAELKSTQEQSVPAESAAVLNDYSLTKSHEMENVDSGEGPANEDEDIGDDSMKVKDEYSERDENVLKSEPMGNAEEPEIPYSYSREYNEYENIKLERHVVSFDSSRPTSGKMNCDVCGLSCISFNVLMVHKRSHTGERPFQCNQCGASFTQKGNLLRHIKLHTGEKPFKCHLCNYACQRRDALTGHLRTHSVEKPYKCEFCGRSYKQRSSLEEHKERCRTFLQSTDPGDTASAEARHIKAEMGSERALVLDRLASNVAKRKSSMPQKFIGEKRHCFDVNYNSSYMYEKESELIQTRMMDQAINNAISYLGAEALRPLVQTPPAPTSEMVPVISSMYPIALTRAEMSNGAPQELEKKSIHLPEKSVPSERGLSPNNSGHDSTDTDSNHEERQNHIYQQNHMVLSRARNGMPLLKEVPRSYELLKPPPICPRDSVKVINKEGEVMDVYRCDHCRVLFLDYVMFTIHMGCHGFRDPFECNMCGYRSHDRYEFSSHIARGEHRALLK
partner: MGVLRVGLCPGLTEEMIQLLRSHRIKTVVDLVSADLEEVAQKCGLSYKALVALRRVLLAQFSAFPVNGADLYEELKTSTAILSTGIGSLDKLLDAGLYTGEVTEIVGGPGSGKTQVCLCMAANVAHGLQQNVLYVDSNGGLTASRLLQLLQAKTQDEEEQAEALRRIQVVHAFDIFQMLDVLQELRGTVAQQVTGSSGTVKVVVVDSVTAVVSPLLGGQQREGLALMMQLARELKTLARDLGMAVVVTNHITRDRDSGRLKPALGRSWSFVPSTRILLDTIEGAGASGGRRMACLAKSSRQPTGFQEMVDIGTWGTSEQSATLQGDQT
B5: Bcl-2-interacting killer (Homo sapiens), Q13323 (parent)
chain: MSEVRPLSRDILMETLLYEQLLEPPTMEVLGMTDSEEDLDPMEDFDSLECMEGSDALALRLACIGDEMDVSLRAPRLAQLSEVAMHSLGLAFIYDQTEDIRDVLRSFMDGFTTLKENIMRFWRSPNPGSWVSCEQVLLALLLLLALLLPLLSGGLHLLLK
partner: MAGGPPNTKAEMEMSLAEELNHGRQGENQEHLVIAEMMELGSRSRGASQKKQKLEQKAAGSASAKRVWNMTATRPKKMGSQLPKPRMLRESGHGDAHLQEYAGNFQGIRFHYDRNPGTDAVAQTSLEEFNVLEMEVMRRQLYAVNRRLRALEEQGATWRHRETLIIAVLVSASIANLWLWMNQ
B6: Tuftelin-interacting protein 11 (Homo sapiens), Q9UBB9 (parent)
chain: MSLSHLYRDGEGRIDDDDDERENFEITDWDLQNEFNPNRQRHWQTKEEATYGVWAERDSDDERPSFGGKRARDYSAPVNFISAGLKKGAAEEAELEDSDDEEKPVKQDDFPKDFGPRKLKTGGNFKPSQKGFAGGTKSFMDFGSWERHTKGIGQKLLQKMGYVPGRGLGKNAQGIINPIEAKQRKGKGAVGAYGSERTTQSMQDFPVVDSEEEAEEEFQKELSQWRKDPSGSKKKPKYSYKTVEELKAKGRISKKLTAPQKELSQVKVIDMTGREQKVYYSYSQISHKHNVPDDGLPLQSQQLPQSGKEAKAPGFALPELEHNLQLLIDLTEQEIIQNDRQLQYERDMVVNLFHELEKMTEVLDHEERVISNLSKVLEMVEECERRMQPDCSNPLTLDECARIFETLQDKYYEEYRMSDRVDLAVAIVYPLMKEYFKEWDPLKDCTYGTEIISKWKSLLENDQLLSHGGQDLSADAFHRLIWEVWMPFVRNIVTQWQPRNCDPMVDFLDSWVHIIPVWILDNILDQLIFPKLQKEVENWNPLTDTVPIHSWIHPWLPLMQARLEPLYSPIRSKLSSALQKWHPSDSSAKLILQPWKDVFTPGSWEAFMVKNIVPKLGMCLGELVINPHQQHMDAFYWVIDWEGMISVSSLVGLLEKHFFPKWLQVLCSWLSNSPNYEEITKWYLGWKSMFSDQVLAHPSVKDKFNEALDIMNRAVSSNVGAYMQPGARENIAYLTHTERRKDFQYEAMQERREAENMAQRGIGVAASSVPMNFKDLIETKAEEHNIVFMPVIGKRHEGKQLYTFGRIVIYIDRGVVFVQGEKTWVPTSLQSLIDMAK
partner: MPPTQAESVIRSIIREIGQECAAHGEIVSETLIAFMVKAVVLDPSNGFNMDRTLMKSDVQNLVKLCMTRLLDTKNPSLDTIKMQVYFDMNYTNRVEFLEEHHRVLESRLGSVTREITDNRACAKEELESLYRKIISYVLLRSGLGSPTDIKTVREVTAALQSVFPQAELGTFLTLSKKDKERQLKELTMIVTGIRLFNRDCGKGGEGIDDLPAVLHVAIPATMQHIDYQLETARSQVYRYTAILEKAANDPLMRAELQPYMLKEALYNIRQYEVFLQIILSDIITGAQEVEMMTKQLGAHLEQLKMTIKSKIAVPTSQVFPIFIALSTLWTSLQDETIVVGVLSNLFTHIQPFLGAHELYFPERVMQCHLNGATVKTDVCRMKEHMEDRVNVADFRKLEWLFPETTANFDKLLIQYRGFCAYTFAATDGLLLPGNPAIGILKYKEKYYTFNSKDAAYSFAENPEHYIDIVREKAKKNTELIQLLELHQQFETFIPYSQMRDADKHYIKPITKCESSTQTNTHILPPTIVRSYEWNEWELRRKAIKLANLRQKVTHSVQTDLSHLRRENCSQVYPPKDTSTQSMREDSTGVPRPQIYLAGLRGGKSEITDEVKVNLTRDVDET
B7: Aflatoxin B1 aldehyde reductase member 2 (Homo sapiens), O43488 (parent)
chain: MLSAASRVVSRAAVHCALRSPPPEARALAMSRPPPPRVASVLGTMEMGRRMDAPASAAAVRAFLERGHTELDTAFMYSDGQSETILGGLGLGLGGGDCRVKIATKANPWDGKSLKPDSVRSQLETSLKRLQCPQVDLFYLHAPDHGTPVEETLHACQRLHQEGKFVELGLSNYASWEVAEICTLCKSNGWILPTVYQGMYNATTRQVETELFPCLRHFGLRFYAYNPLAGGLLTGKYKYEDKDGKQPVGRFFGNSWAETYRNRFWKEHHFEAIALVEKALQAAYGASAPSVTSAALRWMYHHSQLQGAHGDAVILGMSSLEQLEQNLAATEEGPLEPAVVDAFNQAWHLVAHECPNYFR
B8: Serine/threonine-protein phosphatase 6 regulatory ankyrin repeat subunit B (Homo sapiens), Q8N8A2 (parent)
chain: MAVLKLTDQPPLVQAIFSGDPEEIRMLIHKTEDVNTLDSEKRTPLHVAAFLGDAEIIELLILSGARVNAKDNMWLTPLHRAVASRSEEAVQVLIKHSADVNARDKNWQTPLHVAAANKAVKCAEVIIPLLSSVNVSDRGGRTALHHAALNGHVEMVNLLLAKGANINAFDKKDRRALHWAAYMGHLDVVALLINHGAEVTCKDKKGYTPLHAAASNGQINVVKHLLNLGVEIDEINVYGNTALHIACYNGQDAVVNELIDYGANVNQPNNNGFTPLHFAAASTHGALCLELLVNNGADVNIQSKDGKSPLHMTAVHGRFTRSQTLIQNGGEIDCVDKDGNTPLHVAARYGHELLINTLITSGADTAKCGIHSMFPLHLAALNAHSDCCRKLLSSGFEIDTPDKFGRTCLHAAAAGGNVECIKLLQSSGADFHKKDKCGRTPLHYAAANCHFHCIETLVTTGANVNETDDWGRTALHYAAASDMDRNKTILGNAHDNSEELERARELKEKEATLCLEFLLQNDANPSIRDKEGYNSIHYAAAYGHRQCLELLLERTNSGFEESDSGATKSPLHLAAYNGHHQALEVLLQSLVDLDIRDEKGRTALDLAAFKGHTECVEALINQGASIFVKDNVTKRTPLHASVINGHTLCLRLLLEIADNPEAVDVKDAKGQTPLMLAVAYGHIDAVSLLLEKEANVDTVDILGCTALHRGIMTGHEECVQMLLEQEVSILCKDSRGRTPLHYAAARGHATWLSELLQMALSEEDCCFKDNQGYTPLHWACYNGNENCIEVLLEQKCFRKFIGNPFTPLHCAIINDHGNCASLLLGAIDSSIVSCRDDKGRTPLHAAAFADHVECLQLLLRHSAPVNAVDNSGKTALMMAAENGQAGAVDILVNSAQADLTVKDKDLNTPLHLACSKGHEKCALLILDKIQDESLINEKNNALQTPLHVAARNGLKVVVEELLAKGACVLAVDENASRSNGPRSTPGTAVQKEE

One test covers variants of B1. Conditions: with rsmb_human SNRPB.
For the variant MPKRKVTFQGVGDEEDEDEIIVPKKKLVDPVAGSGGPGSRFKGKHSLDSDEEEDDDDGGSSKYDILASEDVEGQEAATLPSEGGVRITPFNLQEEMEEGHFDADGNYFLNRDAQIRDSWLDNIDWVKIRERPPGQRQASDSEEEDSLGQTSMSAQALLEGLLELLLPRETVAGALRRLGARGGGKGRKGPGQPSSPQRLDRLSGLADQMVARGNLGVYQETRERLAMRLKGLGCQTLGPHNPTPPPSLDMFAEELAEEELEIPTPTQRGEAESRGDGLVDVMWEYKWENTGDAELYGPFTSAQMQTWVSEGYFPDGVYCRKLDPPGGQFYNSKRIDFDLYT [T262I], the “effect of a mutation on the interaction” value is “with no effect”.

Variants of B2 are the subject of a further test. Conditions: with lnx1_human LNX1, Q8TBB1.
lnx1_human LNX1, Q8TBB1, sequence (Q8TBB1 whole entry): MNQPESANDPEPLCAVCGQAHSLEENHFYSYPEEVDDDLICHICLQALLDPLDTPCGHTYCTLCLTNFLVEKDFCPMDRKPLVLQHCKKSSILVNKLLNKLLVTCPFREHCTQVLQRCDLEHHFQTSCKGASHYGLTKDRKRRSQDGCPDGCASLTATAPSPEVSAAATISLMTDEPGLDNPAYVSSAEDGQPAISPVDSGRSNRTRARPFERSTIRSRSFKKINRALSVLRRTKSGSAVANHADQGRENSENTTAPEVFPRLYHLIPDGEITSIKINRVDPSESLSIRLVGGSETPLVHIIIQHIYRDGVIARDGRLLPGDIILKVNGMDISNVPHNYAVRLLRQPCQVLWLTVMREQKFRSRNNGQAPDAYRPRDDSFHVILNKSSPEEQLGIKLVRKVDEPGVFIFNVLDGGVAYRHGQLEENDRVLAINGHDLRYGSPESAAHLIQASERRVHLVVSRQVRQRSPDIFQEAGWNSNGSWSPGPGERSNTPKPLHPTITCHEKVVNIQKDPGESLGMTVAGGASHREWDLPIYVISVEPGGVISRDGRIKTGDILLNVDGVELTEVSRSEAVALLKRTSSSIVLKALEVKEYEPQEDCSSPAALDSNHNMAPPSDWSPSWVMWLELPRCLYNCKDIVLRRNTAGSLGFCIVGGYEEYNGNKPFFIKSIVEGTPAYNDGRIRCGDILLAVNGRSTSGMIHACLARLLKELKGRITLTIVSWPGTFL
For the variant G161S, the “effect of a mutation on the interaction” value is “with no effect”.

Variants of B3 are the subject of another test. Conditions: with caco2_human CALCOCO2, Q13137.
R207G: the “effect of a mutation on the interaction” value is “disrupting interaction strength”.

The variants in a further test derive from B4. To be noted: with ra51d_human RAD51D.
On to N119D, for which the “effect of a mutation on the interaction” value is “with no effect”. Turning to A24V, the “effect of a mutation on the interaction” value was “with no effect”.

The variants in a further test derive from B5. Conditions: with fate1_human FATE1, Q969F0.
As for MSEVRPLSRDILMETLLYEQLLEPPTMEVLGMTDSEEDLDPMEDFDSLECMEGSDALALRLACIGDEMEVSLRAPRLAQLSEVAMHSLGLAFIYDQTEDIRDVLRSFMDGFTTLKENIMRFWRSPNPGSWVSCEQVLLALLLLLALLLPLLSGGLHLLLK, the “effect of a mutation on the interaction” value was “with no effect”.

The next test covers variants of B6. To be noted: with cf206_human CFAP206, Q8IYR0.
Take S688L: the “effect of a mutation on the interaction” value is given as “with no effect”. Take R8Q: the “effect of a mutation on the interaction” value is listed as “with no effect”.

Another test covers variants of B7. Conditions: with ark73_human AKR7A3, O95154.
ark73_human AKR7A3, O95154, sequence (O95154 whole entry): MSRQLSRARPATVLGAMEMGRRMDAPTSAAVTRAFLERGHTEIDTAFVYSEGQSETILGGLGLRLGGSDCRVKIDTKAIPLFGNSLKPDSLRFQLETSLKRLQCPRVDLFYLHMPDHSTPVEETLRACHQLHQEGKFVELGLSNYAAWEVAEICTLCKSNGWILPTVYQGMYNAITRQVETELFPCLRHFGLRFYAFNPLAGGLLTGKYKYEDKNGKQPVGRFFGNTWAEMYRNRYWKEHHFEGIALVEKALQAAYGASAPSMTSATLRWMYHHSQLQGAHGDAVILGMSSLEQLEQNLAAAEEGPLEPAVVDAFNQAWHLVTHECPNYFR
For A142T, the “effect of a mutation on the interaction” value is “disrupting interaction strength”.

A further test covers variants of B7. To be noted: with cep70_human CEP70, Q8NHQ1.
cep70_human CEP70, Q8NHQ1, sequence (Q8NHQ1 whole entry): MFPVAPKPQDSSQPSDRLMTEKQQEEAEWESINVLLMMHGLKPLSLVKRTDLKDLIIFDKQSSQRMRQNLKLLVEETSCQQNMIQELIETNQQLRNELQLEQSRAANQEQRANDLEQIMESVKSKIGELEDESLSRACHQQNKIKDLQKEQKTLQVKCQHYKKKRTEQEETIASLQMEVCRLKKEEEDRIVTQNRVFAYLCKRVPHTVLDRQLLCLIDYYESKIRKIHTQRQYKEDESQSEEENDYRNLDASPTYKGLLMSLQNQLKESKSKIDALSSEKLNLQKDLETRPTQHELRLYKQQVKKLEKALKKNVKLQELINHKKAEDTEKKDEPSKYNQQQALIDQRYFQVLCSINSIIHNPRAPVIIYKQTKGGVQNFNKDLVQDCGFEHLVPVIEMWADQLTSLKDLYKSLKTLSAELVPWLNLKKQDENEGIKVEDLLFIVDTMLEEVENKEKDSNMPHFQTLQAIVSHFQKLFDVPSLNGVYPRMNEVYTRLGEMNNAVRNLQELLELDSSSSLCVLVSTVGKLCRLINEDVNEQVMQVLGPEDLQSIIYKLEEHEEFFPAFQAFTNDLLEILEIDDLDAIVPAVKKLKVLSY
For A142T, the “effect of a mutation on the interaction” value was “disrupting interaction strength”.

In a further test the parent is B8. To be noted: with wwp2_human WWP2, O00308.
wwp2_human WWP2, O00308, sequence (O00308 whole entry): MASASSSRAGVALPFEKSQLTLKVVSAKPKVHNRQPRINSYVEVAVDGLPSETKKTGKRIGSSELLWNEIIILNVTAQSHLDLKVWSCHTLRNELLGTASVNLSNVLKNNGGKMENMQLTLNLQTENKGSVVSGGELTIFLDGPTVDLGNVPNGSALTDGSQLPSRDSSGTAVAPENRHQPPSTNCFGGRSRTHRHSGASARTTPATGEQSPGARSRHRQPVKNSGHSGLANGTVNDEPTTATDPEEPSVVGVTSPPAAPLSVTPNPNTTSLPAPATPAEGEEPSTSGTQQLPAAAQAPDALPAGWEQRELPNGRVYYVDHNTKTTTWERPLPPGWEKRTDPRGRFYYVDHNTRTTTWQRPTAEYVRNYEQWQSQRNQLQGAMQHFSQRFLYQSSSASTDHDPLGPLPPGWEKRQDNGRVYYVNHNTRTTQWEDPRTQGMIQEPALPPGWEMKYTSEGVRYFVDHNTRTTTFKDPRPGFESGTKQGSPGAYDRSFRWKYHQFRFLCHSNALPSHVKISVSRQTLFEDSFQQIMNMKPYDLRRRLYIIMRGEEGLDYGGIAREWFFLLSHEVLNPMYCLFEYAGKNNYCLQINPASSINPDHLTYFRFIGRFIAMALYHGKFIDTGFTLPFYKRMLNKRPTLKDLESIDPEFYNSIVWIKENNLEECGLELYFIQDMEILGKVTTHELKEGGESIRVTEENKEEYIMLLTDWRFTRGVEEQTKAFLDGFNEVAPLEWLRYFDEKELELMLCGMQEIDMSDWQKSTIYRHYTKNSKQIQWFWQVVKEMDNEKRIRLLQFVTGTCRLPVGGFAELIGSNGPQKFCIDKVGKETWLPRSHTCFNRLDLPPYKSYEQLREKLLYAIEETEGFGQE
Turning to R80W, the “effect of a mutation on the interaction” value is recorded as “disrupting interaction strength”.

These data come from IntAct's records for PubMed 31515488.
